Data published in paper PMC10127577 (Journal of Bacteriology, 2023).

T1: cleaved, mature CDTb (from limited trypsinization of proCDTb) (Clostridioides difficile)
T1 chain: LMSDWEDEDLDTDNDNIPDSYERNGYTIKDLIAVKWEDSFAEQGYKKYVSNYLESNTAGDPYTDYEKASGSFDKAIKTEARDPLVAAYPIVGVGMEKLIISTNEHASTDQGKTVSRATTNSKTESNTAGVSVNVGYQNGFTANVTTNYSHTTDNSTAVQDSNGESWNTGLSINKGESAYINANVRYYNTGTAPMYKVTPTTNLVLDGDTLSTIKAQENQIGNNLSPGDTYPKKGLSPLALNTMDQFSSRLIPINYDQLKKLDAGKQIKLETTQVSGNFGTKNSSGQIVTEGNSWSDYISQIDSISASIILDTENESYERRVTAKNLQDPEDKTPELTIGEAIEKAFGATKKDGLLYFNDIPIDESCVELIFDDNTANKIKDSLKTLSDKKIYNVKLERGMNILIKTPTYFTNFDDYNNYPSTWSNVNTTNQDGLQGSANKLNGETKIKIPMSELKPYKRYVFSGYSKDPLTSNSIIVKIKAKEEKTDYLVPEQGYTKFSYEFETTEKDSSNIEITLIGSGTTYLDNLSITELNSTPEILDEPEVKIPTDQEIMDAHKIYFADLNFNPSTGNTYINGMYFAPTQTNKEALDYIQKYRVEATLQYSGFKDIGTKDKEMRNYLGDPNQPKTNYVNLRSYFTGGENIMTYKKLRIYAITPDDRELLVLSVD

B1: BINTOXB/9 Fab (Fab, V domains shown)
VH: QVQLQQSGAELARPGASVKMSCKASGYTFTSYTMHWVKQRPGQGLEWIGYINPSNDYTSYNQKFKDKATLTADKSSSTAYMQLSSLTSEDSAVYYCARCWGYDPYYFDYWGQGTTLTVSS
VL: DIVMSQSPSLLAVSAGEKVTMSCKSSQSLLNSRTRKNYLAWYQQKPGQSPKVLIYWASTRESGVPDRFTGSGSGTDFTLTISSVQAEDLAVYYCKQSYNLLTFGAGTKLELK
B2: BINTOXB/22 Fab (Fab, V domains shown)
VH: QIQLVQSGPELKKPGETVKISCKASGYTFTNYGMNWVKQAPGKDLKWMGWMSTYTGEPTYADDFKGRFAFSLETSASTAYLQINNLKNEDMATYFCARRGNYLSFDYWGQGTTLTVSS
VL: DIVMTQSHKFMSTSVGDRVSITCKASQDVSTAVGWYQQKPGQSPKLLIYSASYRYTGVPDRFTGSGSGTDFTFTISSVQAEDLAVYYCQQHYSPPFTFGSGTELEIK

What was measured:
[1] = target: T1, cleaved, mature CDTb (from limited …); assay: cell-based or functional assay
[2] = target: T2, CDTb protoxin (proCDTb), CDTb residues 43 to 876 (Clostridioides difficile, UniProt O32739); assay: SPR; proCDTb with C-terminal 6xHis immobilised (~200 RU) on NTA chip, Biacore X100; Fab flowed at 0.1-25 nM; 10 mM HEPES pH 8.0, 150 mM NaCl, 6 mM CaCl2, 0.05% Tween 20; association 180 s, dissociation 600 s; 1:1 binding model; conditions: both partners purified
T2 construct: pET24b construct for biophysical and structural studies; A different construct (pGEX-6p1, GST cleaved, C-terminal 6xHis) was used for immunisation and the neutralisation assay; also called proCTDb; source: E. coli BL21(DE3), purified (Ni-NTA, anion exchange, SEC); not shown: His6, C-terminal, kept

[3] = target: T3, CDTb D4 fragment, CDTb residues 753 to 876 (Clostridioides difficile, UniProt O32739); assay: crystal structure; conditions: both partners purified
T3 construct: pET22b construct; source: E. coli BL21(DE3), purified (Ni-NTA, SEC); not shown: His6, C-terminal, kept

[4] = target: T3, CDTb D4 fragment, CDTb residues 753 to …; assay: BLI; conditions: both partners purified

Binder | EC50 of protection of HT29 cells from CDT (CDTa 25 ng/mL + cleaved, monomeric CDTb 75 ng/mL) cytotoxicity, Hoechst-stained surface, BINTOXB/9 IgG; blocks CDTb oligomerization (m7 with m7) [1] [µg/mL] | Kd [2] [nM] | binding result [3] | EC50 of protection of HT29 cells from CDT (CDTa 25 ng/mL + cleaved, monomeric CDTb 75 ng/mL) cytotoxicity, Hoechst-stained surface, BINTOXB/22 IgG; blocks CDTb oligomerization (m7 with m7) [1] [µg/mL] | binding result [4]
B1 | 13 | 0.73 | binds |  | 
B2 |  | 16.3 |  | 21 | no binding (tested: 200 nM)
